Source: paper PMC6007489 (Nucleic Acids Research, 2018)
Residue numbers refer to the chain shown, from its start. Numbers in names are those of the source.

T1: His–rad1R218A–Rad10 (S. cerevisiae, UniProt P06777 1-1100; P06838 1-210, R218A)
T1 sequence (looked up) 1: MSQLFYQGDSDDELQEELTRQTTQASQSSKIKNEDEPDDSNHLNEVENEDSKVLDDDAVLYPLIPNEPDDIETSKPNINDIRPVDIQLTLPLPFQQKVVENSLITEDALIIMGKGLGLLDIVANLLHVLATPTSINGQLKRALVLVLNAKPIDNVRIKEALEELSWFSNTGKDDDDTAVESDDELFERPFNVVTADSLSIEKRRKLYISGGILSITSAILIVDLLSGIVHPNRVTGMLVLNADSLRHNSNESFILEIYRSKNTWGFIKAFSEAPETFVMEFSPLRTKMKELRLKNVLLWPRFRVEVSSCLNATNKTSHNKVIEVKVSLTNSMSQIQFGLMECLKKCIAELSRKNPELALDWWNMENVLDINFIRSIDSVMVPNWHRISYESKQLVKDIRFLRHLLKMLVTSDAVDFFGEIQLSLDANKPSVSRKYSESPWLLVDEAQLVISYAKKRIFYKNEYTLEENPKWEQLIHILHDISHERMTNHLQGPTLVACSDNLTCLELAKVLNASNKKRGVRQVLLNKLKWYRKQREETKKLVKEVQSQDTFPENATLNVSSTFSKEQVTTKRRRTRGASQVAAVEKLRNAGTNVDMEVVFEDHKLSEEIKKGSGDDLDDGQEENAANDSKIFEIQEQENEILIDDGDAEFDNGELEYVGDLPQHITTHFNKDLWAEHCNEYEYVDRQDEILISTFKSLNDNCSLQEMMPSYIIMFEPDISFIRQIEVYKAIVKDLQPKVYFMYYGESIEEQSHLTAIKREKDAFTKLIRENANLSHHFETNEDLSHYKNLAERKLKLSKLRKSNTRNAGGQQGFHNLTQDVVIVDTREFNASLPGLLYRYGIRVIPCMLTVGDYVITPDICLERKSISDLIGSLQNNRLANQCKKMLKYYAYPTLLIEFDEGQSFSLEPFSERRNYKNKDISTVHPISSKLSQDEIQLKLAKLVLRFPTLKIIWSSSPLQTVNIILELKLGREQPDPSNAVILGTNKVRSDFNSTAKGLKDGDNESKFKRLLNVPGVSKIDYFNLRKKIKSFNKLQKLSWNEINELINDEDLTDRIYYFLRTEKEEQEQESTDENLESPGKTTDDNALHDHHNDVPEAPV
T1 sequence (looked up) 2: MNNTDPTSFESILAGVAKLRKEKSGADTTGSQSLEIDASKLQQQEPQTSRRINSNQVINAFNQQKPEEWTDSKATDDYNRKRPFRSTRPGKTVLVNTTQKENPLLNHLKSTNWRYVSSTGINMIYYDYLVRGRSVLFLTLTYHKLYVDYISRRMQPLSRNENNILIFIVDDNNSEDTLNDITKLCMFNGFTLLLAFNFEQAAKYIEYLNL

B1: His–rad1R203A,K205A–Rad10 (complex, S. cerevisiae)
chain 1: T1 sequence (looked up) 1 with R203A, K205A, A218R
chain 2: T1 sequence (looked up) 2
B2: Msh2–Msh3 (complex, S. cerevisiae)
chain 1: MSSTRPELKFSDVSEERNFYKKYTGLPKKPLKTIRLVDKGDYYTVIGSDAIFVADSVYHTQSVLKNCQLDPVTAKNFHEPTKYVTVSLQVLATLLKLCLLDLGYKVEIYDKGWKLIKSASPGNIEQVNELMNMNIDSSIIIASLKVQWNSQDGNCIIGVAFIDTTAYKVGMLDIVDNEVYSNLESFLIQLGVKECLVQDLTSNSNSNAEMQKVINVIDRCGCVVTLLKNSEFSEKDVELDLTKLLGDDLALSLPQKYSKLSMGACNALIGYLQLLSEQDQVGKYELVEHKLKEFMKLDASAIKALNLFPQGPQNPFGSNNLAVSGFTSAGNSGKVTSLFQLLNHCKTNAGVRLLNEWLKQPLTNIDEINKRHDLVDYLIDQIELRQMLTSEYLPMIPDIRRLTKKLNKRGNLEDVLKIYQFSKRIPEIVQVFTSFLEDDSPTEPVNELVRSVWLAPLSHHVEPLSKFEEMVETTVDLDAYEENNEFMIKVEFNEELGKIRSKLDTLRDEIHSIHLDSAEDLGFDPDKKLKLENHHLHGWCMRLTRNDAKELRKHKKYIELSTVKAGIFFSTKQLKSIANETNILQKEYDKQQSALVREIINITLTYTPVFEKLSLVLAHLDVIASFAHTSSYAPIPYIRPKLHPMDSERRTHLISSRHPVLEMQDDISFISNDVTLESGKGDFLIITGPNMGGKSTYIRQVGVISLMAQIGCFVPCEEAEIAIVDAILCRVGAGDSQLKGVSTFMVEILETASILKNASKNSLIIVDELGRGTSTYDGFGLAWAIAEHIASKIGCFALFATHFHELTELSEKLPNVKNMHVVAHIEKNLKEQKHDDEDITLLYKVEPGISDQSFGIHVAEVVQFPEKIVKMAKRKANELDDLKTNNEDLKKAKLSLQEVNEGNIRLKALLKEWIRKVKEEGLHDPSKITEEASQHKIQELLRAIANEPEKENDNYLKYIKALLL
chain 2: MAGQPTISRFFKKAVKSELTHKQEQEVAVGNGAGSESICLDTDEEDNLSSVASTTVTNDSFPLKGSVSSKNSKNSEKTSGTSTTFNDIDFAKKLDRIMKRRSDENVEAEDDEEEGEEDFVKKKARKSPTAKLTPLDKQVKDLKMHHRDKVLVIRVGYKYKCFAEDAVTVSRILHIKLVPGKLTIDESNPQDCNHRQFAYCSFPDVRLNVHLERLVHHNLKVAVVEQAETSAIKKHDPGASKSSVFERKISNVFTKATFGVNSTFVLRGKRILGDTNSIWALSRDVHQGKVAKYSLISVNLNNGEVVYDEFEEPNLADEKLQIRIKYLQPIEVLVNTDDLPLHVAKFFKDISCPLIHKQEYDLEDHVVQAIKVMNEKIQLSPSLIRLVSKLYSHMVEYNNEQVMLIPSIYSPFASKIHMLLDPNSLQSLDIFTHDGGKGSLFWLLDHTRTSFGLRMLREWILKPLVDVHQIEERLDAIECITSEINNSIFFESLNQMLNHTPDLLRTLNRIMYGTTSRKEVYFYLKQITSFVDHFKMHQSYLSEHFKSSDGRIGKQSPLLFRLFSELNELLSTTQLPHFLTMINVSAVMEKNSDKQVMDFFNLNNYDCSEGIIKIQRESESVRSQLKEELAEIRKYLKRPYLNFRDEVDYLIEVKNSQIKDLPDDWIKVNNTKMVSRFTTPRTQKLTQKLEYYKDLLIRESELQYKEFLNKITAEYTELRKITLNLAQYDCILSLAATSCNVNYVRPTFVNGQQAIIAKNARNPIIESLDVHYVPNDIMMSPENGKINIITGPNMGGKSSYIRQVALLTIMAQIGSFVPAEEIRLSIFENVLTRIGAHDDIINGDSTFKVEMLDILHILKNCNKRSLLLLDEVGRGTGTHDGIAISYALIKYFSELSDCPLILFTTHFPMLGEIKSPLIRNYHMDYVEEQKTGEDWMSVIFLYKLKKGLTYNSYGMNVAKLARLDKDIINRAFSISEELRKESINEDALKLFSSLKRILKSDNITATDKLAKLLSLDIH

How the values were obtained:
Msh2–Msh3 = target: B2; assay: far-Western, overlay or dot blot
His–rad1R218A–Rad10 = target: T1, His–rad1R218A–Rad10; assay: co-IP

Binder | fold lower binding than His–Rad1–Rad10 (Msh2–Msh3) [fold] | fold enhancement of the interaction by non-specific DNA (His–rad1R218A–Rad10) [fold]
B1 | ~4 | –
B2 | – | ~2
